Measurements: publication PMC2749878 (Developmental cell, 2009)
One block for each binder: values may come before it.

Key:
crystal structure = target: the molecule itself; test: crystal structure
[1] = target: T1, MBP-VPS20 α1 - α4 (residues 1-145) (human, UniProt Q96FZ7 1-145); test: SPR
T1 sequence (looked up): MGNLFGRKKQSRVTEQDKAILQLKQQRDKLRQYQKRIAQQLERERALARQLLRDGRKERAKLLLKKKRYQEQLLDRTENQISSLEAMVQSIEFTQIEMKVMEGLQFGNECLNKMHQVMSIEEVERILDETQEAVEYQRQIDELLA

B1: VPS20 α1 (residues 11-48) (domain or fragment, human, UniProt Q96FZ7 11-48, looked up)
chain: SRVTEQDKAILQLKQQRDKLRQYQKRIAQQLERERALA
- binding result (crystal structure): binds

- Kd [1]: 2500 nM
B2: VPS25c, C-terminal winged helix (WH2) domain of human VPS25 (residues 102-176) (domain or fragment, UniProt Q9BRG1 102-176, looked up)
chain: RRPEEWGKLIYQWVSRSGQNNSVFTLYELTNGEDTEDEEFHGLDEATLLRALQALQQEHKAEIITVSDGRGVKFF
